Article PMC5668897 (Biochemistry and Biophysics Reports, 2015)

Target: the molecule itself
Assay: SEC

B1: regulatory subunit of Thermotoga maritima acetohydroxyacid synthase (TmAHAS), TM0549 (natural protein)
chain: MTDQIREHLVSMLVHNKPGVMRKVANLFARRGFNISSITVGESETPGLSRLVIMVKGDDKTIEQIEKQAYKLVEVVKVTPIDPLPENRVEREMALIKVRFDEDKQEIFQLVEIFRGKIIDVSREGAIIEITGARSKVEAFINLLPQKQVEEIARTGIVAMNRWNVKEGEGF
Q: How did the “stoichiometry N” value turn out when B1 was run?
A: Its value is 2.
